In US20190284272A1 (published 2019) one finds Kd data, which are given here for 19 molecules.

Changes are numbered by the printed parent chain.

The target of the assay is T1, canine IL-31 protein (Canine_IL31).
T1 chain: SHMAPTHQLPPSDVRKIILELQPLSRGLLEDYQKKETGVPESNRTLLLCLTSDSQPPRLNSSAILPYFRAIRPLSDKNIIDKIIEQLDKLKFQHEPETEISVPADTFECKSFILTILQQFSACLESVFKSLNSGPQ
Kind of assay: Biacore.

B1: Feline 15H05 1.1 FW1_2 (antibody, V domains shown)
VH: QVLLVQSGAEVRTPGASVKIFCKASGYSFTSYTIHWLRQAPAQGLEWMGNINPTSGYTENNQRFKDRLTLTADTSTNTAYMELSSLRSADTAMYYCARWGFKYDGEWSFDVWGAGTTVTVSS
VL: DIQMNQSPSSLSASLGDTITVTCRASQGISIWLSWYQQKPGNIPKVLINKASNLHIGVPSRFSGSGSGTDFTLTISSLEPEDAATYYCLQSQTYPLTFGGGTKLEIK
For the molecule B1, the dissociation constant (Kd) came to 0.263 nM.

B2: Feline 15H05 1.1 FW2 (antibody, V domains shown)
VH: B1 VH
VL: B1 VL with D1E, N5T, L15P, T18R, I19V, V21I
The molecule B2 showed a Kd of 0.000431 nM.

B3: Feline 15H05 1.1 FW1 (antibody, V domains shown)
VH: B1 VH
VL: B1 VL with N42K, I43V, V46L, N49Y
Regarding B3, binding was put at a Kd of 813 nM.

B4: Feline 15H05 VH2 mouse VL (antibody, V domains shown)
VH: B1 VH with S28G, L37V, A40S
VL: B1 VL with S60P, D70H, S76T, E79Q, A83I, K107N
In turn, B4 registered a Kd of 2.22 nM.

B5: Feline 15H05 2.2 (antibody, V domains shown)
VH: B1 VH with S28G, L37V, A40S
VL: EITMTQSPGSLAGSPGQQVTMNCRASQGISIWLSWYQQKPGQHPKLLIYKASNLHIGVPDRFSGSGSGTDFTLTISNLQAEDVASYYCLQSQTYPLTFGGGTKLEIK
B5 registered a Kd of 0.393 nM.

B6: Feline 15H05 1.3 (antibody, V domains shown)
VH: B1 VH
VL: EVVLTQSSAFLSRTLKEKATITCRASQGISIWLSWYQQKPNQAPKLLVKKASNLHIGAPSRFSGSGSGTDFTLTISSPEPEDAATYYCLQSQTYPLTFGGGTKLGDQ
In the case of B6, the dissociation constant (Kd) came to 6.38 nM.

B7: Feline 15H05 1.1 (antibody, V domains shown)
VH: B1 VH
VL: B1 VL with D1E, N5T, L15P, T18R, I19V, V21I, N42K, I43V, V46L, N49Y
Regarding B7, the Kd is 0.00504 nM.

B8: Feline 15H05 2.1 (antibody, V domains shown)
VH: B1 VH with S28G, L37V, A40S
VL: B1 VL with D1E, N5T, L15P, T18R, I19V, V21I, N42K, I43V, V46L, N49Y
In turn, B8 had an equilibrium dissociation constant (Kd) of 1.65 nM.

B9: Feline 15H05 3.2 (antibody, V domains shown)
VH: B1 VH with T13K, A42E
VL: B5 VL
In the case of B9, binding was put at a Kd of 0.204 nM.

B10: Feline 15H05 1.1 FW1_3 (antibody, V domains shown)
VH: B1 VH
VL: B1 VL with N42K, I43V, V46L, N49Y, S60P, D70H, S76T, E79Q, A83I
B10 yielded a Kd of 0.00436 nM.

B11: Feline 15H05 VH1 mouse VL (antibody, V domains shown)
VH: B1 VH
VL: B1 VL with S60P, D70H, S76T, E79Q, A83I, K107N
For the molecule B11, the Kd came to 0.00246 nM.

B12: Feline 15H05 VH3 mouse VL (antibody, V domains shown)
VH: B1 VH with T13K, A42E
VL: B1 VL with S60P, D70H, S76T, E79Q, A83I, K107N
Turning to B12, the Kd stood at 0.00264 nM.

B13: Feline 15H05 1.1 FW3 (antibody, V domains shown)
VH: B1 VH
VL: EIQMTQSPSSLSASPGDRVTITCRASQGISIWLSWYQQKPGKVPKLLIYKASNLHIGVPPRFSGSGSGTHFTLTITSLQPEDIATYYCLQSQTYPLTFGGGTKLEIK
Molecule B13 came in with a dissociation constant (Kd) of 0.13 nM.

B14: Feline 15H05 3.1 (antibody, V domains shown)
VH: B1 VH with T13K, A42E
VL: B13 VL with P60S, H70D, T76S, Q79E, I83A
Consider B14, for which the affinity, expressed as Kd, was 0.795 nM.

B15: Feline 15H05 1.1 FW2_3 (antibody, V domains shown)
VH: B1 VH
VL: B13 VL with K42N, V43I, L46V, Y49N
As to B15, binding was put at a Kd of 214 nM.

B16: Feline 15H05 1.2 (antibody, V domains shown)
VH: B1 VH
VL: B5 VL
B16 displayed a Kd of 3.48 nM.

B17: Feline_11E12 1.1_K46Q (antibody, V domains shown)
VH: QVLLVQSGAEVKKPGASVKIFCKASGYSFTYYDINWLRQAPEQGLEWMGWIFPGDGGTKYNETFKGRLTLTADTSTNTVYMELSSLRSADTAMYYCARGGTSVIRDAMDYWGQGALVTVSS
VL: EIQMTQSPSSLSASPGDRVTITCRASESVDNYGISFMHWYQQKPGQVPKLLIYRASNLESGVPSRFSGSGSGTDFTLTISSLEPEDAATYYCQQSNKDPLTFGQGT
For the molecule B17, the affinity, expressed as Kd, was 1.91 nM.

B18: Feline 11E12 1.1 (antibody, V domains shown)
VH: B17 VH
VL: B17 VL with Q46K
With B18, the dissociation constant Kd was 0.764 nM.

B19: Feline 11E12 1.1 FW2 (antibody, V domains shown)
VH: B17 VH
VL: B17 VL with V47P
For B19, the affinity, expressed as Kd, was 7.02 nM.

As usually defined, the Kd is the free concentration of one partner at which half of the binding sites on the other are occupied at equilibrium, for simple one-to-one binding. Read a high Kd as lower affinity.
